These results are taken from publication PMC6717114 (Biochemical Journal, 2019).

The assay addresses Mouse Pcdh15 EC1-2 wild-type (mouse, UniProt Q99PJ1-18 27-259). Kind of assay: single-molecule force spectroscopy.

B1: Mouse Cdh23 EC1-2 wild-type (domain or fragment, UniProt Q99PF4 24-228, looked up)
chain: QVNRLPFFTNHFFDTYLLISEDTPVGSSVTQLLARDMDNDPLVFGVSGEEASRFFAVEPDTGVVWLRQPLDRETKSEFTVEFSVSDHQGVITRKVNIQVGDVNDNAPTFHNQPYSVRIPENTPVGTPIFIVNATDPDLGAGGSVLYSFQPPSPFFAIDSARGIVTVIQELDYEVTQAYQLTVNATDQDKTRPLSTLANLAIIITD
In the case of B1, the dissociation rate constant (koff) (as a rule, the first-order rate constant of dissociation) came out at 0.0045 s⁻¹.
